Measurements as given in patent US12649778.

Target: Peptide 1593 (…) (Mycobacterium tuberculosis)
Experiment: SPR (Biacore), IgG amine-coupled, peptide as analyte

B1: 65D3 mutant IgG variant 2 (S55W-VH + S57T-VL) (antibody)
heavy: QSLEESGGRLVTPGGSLTLTCTVSGFSLSTHDISWVRQAPGKGLEWIGVIARRGWTYYASWAKGRFTISKTSTTVDLKITSPTIEDTATYFCAREEFDFWGQGTLVTVSSGQPKAPSVFPLAPCCGDTPSSTVTLGCLVKGYLPEPVTVTWNSGTLTNGVRTFPSVRQSSGLYSLSSVVSVTSSSQPVTCNVAHPATNTKVDKTVAPSTCSKPTCPPPELLGGPSVFIFPPKPKDTLMISRTPEVTCVVVDVSQDDPEVQFTWYINNEQVRTARPPLREQQFNSTIRVVSTLPIAHQDWLRGKEFKCKVHNKALPAPIEKTISKARGQPLEPKVYTMGPPREELSSRSVSLTCMINGFYPSDISVEWEKNGKAEDNYKTTPAVLDSDGSYFLYSKLSVPTSEWQRGDVFTCSVMHEALHNHYTQKSISRSPGK
light: AVLTQTASPVSAAVGGTVTISCQSSQSVYNNKELSWFQQKPGQPPKLLISYASTLATGVPSRFKGSGSGTQFTLTISDLECDDAATYYCLGGYASTIDMWAFGGGTEVVVKGDPVAPTVLIFPPAADQVATGTVTIVCVANKYFPDVTVTWEVDGTTQTTGIENSKTPQNSADCTYNLSSTLTLTSTQYNSHKEYTCKVTQGTTSVVQSFNRGDC
B1 gave a Kd of 3.27 nM, a koff of 0.000393 s⁻¹ and a kon of 120000 M⁻¹ s⁻¹.
